Assay results reported in publication PMC6848931, “Exportin-1-Dependent Nuclear Export of DEAD-box Helicase DDX3X is Central to its Role in Antiviral Immunity” (Cells, 2019).

B1: 6His-DDX3X(1-580) (domain or fragment)
chain: MSHVAVENALGLDQQFAGLDLNSSDNQSGGSTASKGRYIPPHLRNREATKGFYDKDSSGWSSSKDKDAYSSFGSRSDSRGKSSFFSDRGSGSRGRFDDRGRSDYDGIGSRGDRSGFGKFERGGNSRWCDKSDEDDWSKPLPPSERLEQELFSGGNTGINFEKYDDIPVEATGNNCPPHIESFSDVEMGEIIMGNIELTRYTRPTPVQKHAIPIIKEKRDLMACAQTGSGKTAAFLLPILSQIYSDGPGEALRAMKENGRYGRRKQYPISLVLAPTRELAVQIYEEARKFSYRSRVRPCVVYGGADIGQQIRDLERGCHLLVATPGRLVDMMERGKIGLDFCKYLVLDEADRMLDMGFEPQIRRIVEQDTMPPKGVRHTMMFSATFPKEIQMLARDFLDEYIFLAVGRVGSTSENITQKVVWVEESDKRSFLLDLLNATGKDSLTLVFVETKKGADSLEDFLYHEGYACTSIHGDRSQRDREEALHQFRSGKSPILVATAVAARGLDISNVKHVINFDLPSDIEEYVHRIGRTGRVGNLGLATSFFNERNINITKDLLDLLVEAKQEVPSWLENMAYEHHY
notes: DEAD-box helicase 3, X-linked (DDX3X), human, residues 1-580 of the 662-residue protein; Cloned in pCOLD-IV with an N-terminal 6His tag; no removal of the tag is described; also called wild-type DDX3X(1‒580); DEAD-box helicase 3, X-linked; source: E. coli BL21(DE3), purified (Ni-NTA, Superdex 200 SEC)
B2: DDX3X(1-168) (domain or fragment)
chain: MSHVAVENALGLDQQFAGLDLNSSDNQSGGSTASKGRYIPPHLRNREATKGFYDKDSSGWSSSKDKDAYSSFGSRSDSRGKSSFFSDRGSGSRGRFDDRGRSDYDGIGSRGDRSGFGKFERGGNSRWCDKSDEDDWSKPLPPSERLEQELFSGGNTGINFEKYDDIPV
notes: DEAD-box helicase 3, X-linked (DDX3X), human, residues 1-168; The purification section names only the 1-580 constructs; the expression and purification of the 1-168 fragment are not described on their own; also called DDX3X(1–168) fragment; source: purified recombinant; truncations were cloned in pCOLD-IV for bacterial expression

Molecular target: Exportin-1-Ran-GTP complex (human, UniProt O14980 1-1071; P62826 1-216, Q69L)
Test: AUC; sedimentation velocity with Ran-GTP present; proteins incubated together at equimolar concentrations at 20 °C for 30 min in GF1 buffer (20 mM Tris-Cl pH 7.5, 100 mM NaCl, 5 mM MgOAc, 2 mM DTT); 40,000 rpm, 280 nm, c(s) analysis
Conditions: both partners purified

| Binder | binding result |
| --- | --- |
| B1 | binds |
| B2 | binds |
